Values quoted from earlier work as cited in PMC3750086.

What was measured:
[1] = target: PDL1 (Homo sapiens) (UniProt Q9NZQ7)
[2] = target: CD28 (Homo sapiens) (UniProt P10747)

UniProt Q9NZQ7, sequence (Q9NZQ7 19-238): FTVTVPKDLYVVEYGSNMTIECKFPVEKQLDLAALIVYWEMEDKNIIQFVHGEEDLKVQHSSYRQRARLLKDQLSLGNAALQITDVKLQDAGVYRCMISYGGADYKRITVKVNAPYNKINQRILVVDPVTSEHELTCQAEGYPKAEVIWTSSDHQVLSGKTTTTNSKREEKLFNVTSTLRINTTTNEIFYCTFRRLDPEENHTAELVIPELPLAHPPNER

CD80 (from UniProt P33681)
Kd [1]: 1400 nM | Kd [2]: 4000 nM
